The DeepSol protein solubility set

Assay: soluble on expression in E. coli; label from the status in PepcDB or PDB records
For “MGSDKIHHHHHHRWIPGSRDFDSWLVTLHAQLLAEVDYPRELRMAQVMTEGLAQHEALQSAPVTLRVPHFWPEHCSTNVLTMDYVEGHRAASPEVAALPQSARNELGKAMLQLFFAEVFDLGLVQTDPNFGNYLINDDGTELTLLDFGSVFELDETVRTALCDTIVAGLTNDETRLELALVALGCLKPGAGESAKATFKAFIRNLLEPLRPPEALPPEHLNAEGLYCWGHSELVNRTGQQVARSLTNREFAIPSSDFAMVARKLTGVFTFIAVLDAEFNGHDIAAPYLDEVTAGGET”, the “soluble on expression in E. coli” value was “not soluble”.
With “MGSDKIHHHHHHSCENEFDVSDKADSLISVTVNTLNNQAAYNVGETAQAELWIQRGGLKDASGKVQFVVDPLLLDSLNQEDKTNYELLPENCYEMTNTEFTVDKNELCGYITYHPEKILALSAYNETKYVLPLRLISNDLAINPARNTSFLAFTILEPIVHISNAGVYNINPDLTSTMDIQIGVPFTNKWDILCNLTEDLSLIDEYNQINKVNFTLLPENAYTAPESVTLQEGVSQITASYQLKNNLVPGNYILPIKIGSITASQGGVPNNSLVIDEESNVLFCIVKEGNKINKSGWEVIECSSEHAGNEATYMIDDNESTYWHCKFKNEAGSSVPPFHFIIDMKKEITIAQIDLLNRGDGAANNIKWVEFYASNNNSEWDKIGAGDFNDEGTRATFRYYVKSTKARYLKLIIPEGYGNNCPPAAIRELTVYGLEGNN” the “soluble on expression in E. coli” value was “not soluble”.
In the case of “MGSDKIHHHHHHSSDDKDEQPILVTNVVMPASGTVFKPGEKVTIMAKGFQDNDEIMFDIRWPLQDEVLHEGYAKGGRGVITEKTATSITFLAPGHWPASTTEILLRRSGQMMSLGKISVADGQAPKDFQLYGIINSRSNTHRPHAIEYINLEKPQTAEIVRLADNQDFSCVVNLPGSWSLSGVWTKDDRRTTGLYDLSMNYWEKPGADQLVTMGIATANSVFGVYQGGDRLFVKTVNVMPYTRMYVPEKPDYGFLLPEGMKAEALSRYPCIQMSDGNILCSADNGDGTFSPVVLNGQNIEEKSIYVGEPIEAVALIPFWIVKPVEGMGTAKYTRVGGYIVSKRNGATITEGDGTEFRLWNPTTKMLDEPFTTFPNAACLVATLVSDDFKKQELYVLFDGSRNGRLIYVYDLLKGSWESLYPGGGFPYSEIVLAR”, the “soluble on expression in E. coli” value is reported as “not soluble”.
With “MGSDKIHHHHHHTVQNAQLSQQHAPCVDNKWPKSRLLSLAGSQFEMTDADRNDMVMRLISCLADTDPELRDAVAFSGLSHWLRANDLTNETVKSLYTKLSGDVRKRKDDPNGVYLPFAILTLSEVARVDRVSPFFEPAERDALSKLAADTMAGIQDYRGFDETIGWRHQVAHSADLLLQLVLNPALSSDDIMELVTSIQHQLSPAGHFYVYGEPERLARPVLYAMLRDDIPDSFWHSQLARWSTPVHIEGWDKAFSSNAGLAERHNRRAFFSALLLGISGSKQPRLLALQPAIQAAMKKLP” the “soluble on expression in E. coli” value was “not soluble”.
With “MGSDKIHHHHHHVEASYAQRLRQEKGYAYADNCNTKTSLSIKMSMVLLTPTVSSNFEKDSLIYMAKKIHFISNSIVKEINNSDNVSILVLDKEEIISLFKANGILLFRGFDVDVDIFKEFTNLLSIDFINYAGGAFSRRVINGDQTVLSVNDFKSEIKLHGEMYYQKNIPLMLWFFCANPPLEDGETTVCDGRQFFHEISSSTKELFRQKNLKFTVRMSKEDWQKKYKTDDVNQLKEICRNNNTHLKIFDDRSIMLEYISPAIIPSRCGNYQVFINSLLPTKQLSPNILKFEDDSDIPEEVVSELNEIAEKITTEISWRKGDILMIDNTRILHGRRSFADDQRDIYIRLCSPAFSF” the “soluble on expression in E. coli” value was “not soluble”.
For “MGSDKIHHHHHHVEDLKNLTNQAVEKQPEIVKRFNEMIDSQHLSHAYLLTGAGGIGKKDVAQWVAMRLFCIDLQGSMPCGECEECTRIMSGQHPDVVEIAPDGQSIKVEQVRFLKSEFSKSGVEGARKVFIIEQANKMTTSAANSLLKFIEEPSGEVTAFLLAENRSLMLPTIVSRTEIIELKPLPKDRLIKELTEQNIAETDARILTRLTNDMSEIQTLVDNNWILDAHKALEKWFITATTGDITAFVDVQTRVMALAKDRFYQEKILDLMMLYAMDLLELKFDQETITYEANRRQLQELADQTNVRQLLAVADVLLPLKHQLSQNLNFQSVVEKATIKICNIFKMRGR”, the “soluble on expression in E. coli” value was “not soluble”.
For “MGSDKIHHHHHHVEGLIFQSSEFGTDEIYANMEEYIMQITRDNYSQYAQMVQQMFGKKASSNDPLAQCDYGNFSLRFKPVDINFTKPNWDTIMTKRDKPAMSEEEFDEAIKELARKEFATGKRDDDAYRKLCMQHGETVSPDRKAIYESSMKKTGGKMNAACMFWDSKGNKTLSYNPESRNWKAISTDEEFARARVFTSIYNDELARLKEEYGEKAKGNVSYSKIKVDISAERSKEKNNNEGNTIDLQI”, the “soluble on expression in E. coli” value was “not soluble”.
With “MGSDKIHHHHHHVEKFDLENFPVSESAKNMIASVSDGFYDNSYVGKWLYEVMGQEYDTAREIAEDILNQLFPETATWGLMYHEIKWGLPVRENLPYEERRQLIYRKRDYRAPMTPYRMEGYLKTATGFDVRIADINDPGDYGFVAPHPNVFKAYFMGEGTLASKRARAMLNELKQSHTMFTMNDRTEIVSDNRNLEEMNLKKIIFHIAESFWYSDLLDGRKPLDGSSLLYPYMRYNLMLGFKYMLGGFTTPTDADLQKVKFRAEQKTENDVKAGAIRIASDIIFWNTHLLDGSWDLDGSHRLDVTRGYQLGVAIVAMVACAYNKVTDSMKVRSTYGLRSSSDARAAIRSEFEADFWNTVYLDGKLLLDGNAMLEHRGGNKRLEAAVTHHMGIEREDMDVEAQVITKTRNYWFLDGSNALDGKKNLNSIYRKEYIQ” the “soluble on expression in E. coli” value was “not soluble”.
For “MGSDKIHHHHHHVEPRSLRSRRSSSYYCGELIKADFSQRREFVMRNSLRRWKNEKLAQKLKKVFESKSVRVIYLPDIEMVVEEVHKLIPDGATVSSGGSVTLQETGVMDLLRSGKYEFLDRDSVSEDKERRKIMIKAFESDYYLCSANAITENGEILLLDGSGNRAAAVTFGPEKVIFVAGINKVVEDLDAGIKRIKSIAPMNAKRLNLHTPCATTGFCSDCSSEERICEMYSIIIDSRRRPWRYTIVLIGEELGL”, the “soluble on expression in E. coli” value was “not soluble”.
For “MGSDKIHHHHHHVIIESRIEKGKPVVGMETTVFVHGLPRKEAIELFRRAKEISREKGFQLAVIGILKGKIVAGMSEEELEAMMREGADKVGTREIPIVVAEGKNAATTVSATIFLSRRIGIEVVVTGGTGGVHPGRVDVSQDLTEMSSSRAVLVSSGIKSILDVEATFEMLETLEIPLVGFRTNEFPLFFSRKSGRRVPRIENVEEVLKIYESMKEMELEKTLMVLNPVPEEYEIPHDEIERLLEKIELEVEGKEVTPFLLKKLVEMTNGRTLKANLALLEENVKLAGEIAVKLKRS”, the “soluble on expression in E. coli” value was “soluble”.
In the case of “MGSDKIHHHHHHVKEVKPKEDRVVLTKDQEKSLQIFCEWLEAPYSFKPFVMKGFAGSGKTYLSMKLLKKVDQLGLCWTVVAPTHKAVGVLREGLKNESIQPTWFPSTIHRLLRLKLKRQADIEICEKTDQTESSLENLGLVLIDEASMIDSKLLEITLECARCNSTRLVFVGDPAQLPPVGESTSSVFLMKRAVNTELREVVRHQGPVLKLAKVIRDGQIPCMQPPLVKVINSKKGNVGILDRTSWLERAKLALRLSSLEDDHDRARILCYTNRIVDNLVPHARRAIHGEMADQYQVLPGEVLISRKAVMVNASLNVDELGEEPDILISSNREMVVEDVIPNSFDLASLGIHQDFENPLPVIETQVAKVNCDQKEFSLRLMPQIGSKARKDLDLSLNELSNLARERGRKNSASTWKLFFFIRDSFASLGPASVLTIHRSQGSTFGEVFITSDAFWPKDLEFRRRLVYVAVSRASKGVWIVGDNKSKMNQALLEKLLMD”, the “soluble on expression in E. coli” value is reported as “not soluble”.
In the case of “MGSDKIHHHHHHVKFRVERDVLAEAVTWTARSLSPRPPVPVLSGLLLKAEAGTVSLSSFDYETSARLEIPADISVEGTILVSGRLLADICRSLPSAPVDVETDGNKVTLTCRRSSFHLATMPEAEYPPLPALPTISGTVPGDSFAQAVSQVIIAASKDDTLPILTGVRMEIEDDLITLLATDRYRLAMREVPWKPVTPGISTSALVKAKTLNEVAKTLGNSGDINLALADDDSRLIGFESGGRTTTSLLVDGDYPKIRSLFPDATPIHATVQTQELVEAVRRVSLVAERNTPVRLAFTDGQLHLDAGTGEDAQASEELEAQLTGDEITVAFNPHYLIEGLSVIETKFVRFSFTTAPKPAMITAQVDADGEDQDDYRYLVMPVRLPN”, the “soluble on expression in E. coli” value is reported as “not soluble”.
